Experimental findings from patent publication US20050037969A1 are described below.

A value given as a limit tells only on which side of the number the result lay.

For this assay, the target named is GST-DLG1 fusion protein (PDZ domains 1-2) (human) (UniProt Q12959). The assay is described as follows: variant of the G assay, 100 uM 8-mer against 20 uM biotin-labeled AA2L.

With “eight amino acid CLASP-2 peptide MTSSSSVV (unlabeled)”, the percent inhibition at 100 uM is over 50%.
